Test [1] deals with filamentous actin (F-actin) polymerized from G-actin purified from rabbit skeletal muscle (rabbit) (UniProt P68135).
Test [2] shares this target. This is another data set of the same source.

Some results are limits rather than exact numbers.

Take “ABS pepCAST (ABS pep6: SZ3-linker-ABS-linker-SZ4-eGFP) (designed binder)”: the percent activation of localisation to F-actin (0% inactive pepCAST, 100% ABM only) in live HeLa cells that co-express SZ21 in test [1] is greater than 80%. In the case of “ABS optoCAST (ABS opto1: mCherry-AsLOV2(403-540)-ABS) (from UniProt O49003 403-540) (designed binder)”, the percent activation of localisation to F-actin (0% inactive optoCAST, 100% ABM only) in live HeLa cells under blue light in test [2] turned out to be 80%.

The values are drawn from paper PMC11239668.
